Measured values taken from patent US20240327530A1 (ICHNOS SCIENCES, published 2024).

Assays:
[1] = target: T1, Recombinant mouse IL-1RAP-his (Sino Biologicals, catalog no. 52657-M08H) (mouse, UniProt Q61730 21-350); test: SPR, mouse IgG2a LALA captured by anti-mouse Fc, mouse IL-1RAP-his as analyte, 1:1 fit
T1 construct: Bought; not shown: His tag of the bought protein
T1 sequence: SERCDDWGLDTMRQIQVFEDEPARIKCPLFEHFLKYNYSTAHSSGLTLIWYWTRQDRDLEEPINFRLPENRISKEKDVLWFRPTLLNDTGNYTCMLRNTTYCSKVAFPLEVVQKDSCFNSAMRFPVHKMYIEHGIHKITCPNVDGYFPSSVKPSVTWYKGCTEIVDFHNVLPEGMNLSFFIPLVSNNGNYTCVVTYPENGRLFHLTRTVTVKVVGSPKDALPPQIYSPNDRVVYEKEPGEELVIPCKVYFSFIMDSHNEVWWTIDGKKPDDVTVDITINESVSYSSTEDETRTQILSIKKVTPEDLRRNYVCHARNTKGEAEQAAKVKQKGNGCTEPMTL
Protocol: Surface plasmon resonance (SPR) was used to measure the binding affinities of mouse IgG2a LALA molecules for mouse IL-1RAP. Affinity was measured on a BIACORE™ T200 instrument (BIACORE™ GE […]®) at 25° C. and analyzed with the BIACORE™ T200 Evaluation Software (v3.1). Measurements were performed on Series S CM5 sensor chips (BIACORE™ T200, BIACORE™, GE […]®, catalog no. BR100530) coupled with anti-mouse IgG Fc (BIACORE™, GE […]®, catalog no. BR100838) using a commercial amine coupling kit (BIACORE™, GE […]®, catalog no. BR100050). SPR measurements were performed with commercially available recombinant mouse IL-1RAP-his (Sino Biologicals, catalog no. 52657-M08H). The affinity to mouse IL-1RAP was assessed by immobilizing anti-mouse IL-1RAP mouse IgG2a LALA molecule and using mouse IL-1RAP protein as analyte. Around 150 RU of mouse IgG2a LALA was captured on fc2 of a Series S CM5 sensor chip coupled with anti-mouse IgG Fc. Mouse IL-1RAP-his was injected in multi cycle kinetic at different concentrations ranging from 0.14 to 100 nM, in HBS-EP+ buffer (BIACORE™, GE […]®, catalog no. BR100669) at a flow rate of 30 μl/min for 3 min on fc1 and fc2 (fc1 being used as reference). Dissociation was monitored for 15 min. After each cycle, the surface was regenerated with 60 μl of regeneration solution provided with anti-mouse IgG Fc capture kit (BIACORE™ GE […]®, catalog no. BR100838). Experimental data were processed using the 1:1 Langmuir kinetic fitting model. Measurements included zero-concentration samples for referencing. Chi², U- and residual values were used to evaluate the quality of a fit between the experimental data and individual binding models.

[2] = target: T2, Mouse IL-1RAP, membrane-bound on NIH-3T3 cells (mouse, UniProt Q61730 21-570); test: flow cytometry on NIH-3T3 cells, PE-Cyanine7 secondary antibody, relative mean fluorescence intensity (isotype subtracted); upper of two curves
T2 construct: Endogenous protein on cells
T2 sequence (looked up): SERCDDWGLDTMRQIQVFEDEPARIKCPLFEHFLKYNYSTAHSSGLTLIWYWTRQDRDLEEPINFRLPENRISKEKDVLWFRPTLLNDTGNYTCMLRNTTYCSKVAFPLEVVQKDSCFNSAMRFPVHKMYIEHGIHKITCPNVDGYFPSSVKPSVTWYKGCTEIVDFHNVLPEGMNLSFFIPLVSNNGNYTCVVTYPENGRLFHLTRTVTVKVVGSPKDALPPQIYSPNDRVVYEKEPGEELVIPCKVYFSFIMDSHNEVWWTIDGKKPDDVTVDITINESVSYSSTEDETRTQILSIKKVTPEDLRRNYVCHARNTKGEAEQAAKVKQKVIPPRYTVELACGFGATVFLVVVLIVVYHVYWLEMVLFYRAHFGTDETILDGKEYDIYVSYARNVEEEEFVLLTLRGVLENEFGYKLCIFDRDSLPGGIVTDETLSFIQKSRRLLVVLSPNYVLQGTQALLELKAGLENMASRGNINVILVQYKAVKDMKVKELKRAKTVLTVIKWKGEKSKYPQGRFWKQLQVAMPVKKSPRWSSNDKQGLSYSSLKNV
Protocol: In brief, cells were harvested, counted, and plated at 50′000 cells/well in a 96-well round-bottom plate. The plate was centrifuged at 350 g for 3 minutes and the cells were resuspended in […] of FACS® buffer (PBS (1×)+2.5% FCS+2 mM EDTA+0.05% NaN₃) containing various concentrations (ranging from 20 to 0.0001 μg/ml) of either anti-mouse IL-1RAP_candidate_1 or Isotype control_2 antibodies. Stained cells were incubated for 30 minutes at 4° C., washed twice with FACS® buffer at 350 g for 3 min and resuspended in 100 μl of a monoclonal anti-mouse IgG PE-Cyanine7 secondary antibody (Biolegend, 407114) diluted 1/200 in FACS® buffer. Cells were then washed twice, and resuspended in 200 μl of FACS® buffer containing SYTOX® Green dead cell stain (THERMO FISHER […]®, S34860) and samples were acquired on a CYTOFLEX® instruments (Beckman Coulter). The cells were gated based on size on FSC vs SSC and analysed for PE-Cyanine7-geometric mean (geomean) fluorescence intensity using FLOWJO® software. Finally, relative geomean fluorescence intensity was calculated by subtracting fluorescence of anti-mouse IL-1RAP_candidate_1 per fluorescence of Isotype control_2. As depicted in FIG. 11, anti-mouse IL-1RAP_candidate_1 antibody recognizes membrane-bound IL-1RAP expressed on NIH-3T3 cell line. […] Each data point is a measurement for a given cell line. […]

- Kd [1]: 0.545 nM
- koff [1]: 7.46e-05 s⁻¹
- kon [1]: 138000 M⁻¹ s⁻¹
- EC50 (read off the curve) [2]: ~0.01 µg/mL
B1: Anti-IL-1RAP-C3-A3 mmIgG2a LALA (antibody, V domains shown)
VH: EVQLLESGGGLVQPGGSLRLSCAASGFIFSHYGMSWVRQAPGKGLEWVSAISYDGEGTLYADSVKGRFTISRDNSKNTLYLQMNSLRAEDTAVYYCARFRYYTAFDYWGQGTLVTVSS
VL: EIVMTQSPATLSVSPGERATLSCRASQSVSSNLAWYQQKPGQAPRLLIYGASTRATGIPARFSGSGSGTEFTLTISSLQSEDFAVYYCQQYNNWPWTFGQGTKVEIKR
notes: also called anti-IL-1RAP-C3-A3 mouse IgG2a LALA
